Reference: US10407503B2, “Fully human antibodies and fragments recognizing human c-Met” (THE REGENTS OF THE UNIVERSITY OF CALIFORNIA, priority 2012, dated 2019)
Entries after “also recorded” stand apart in the source; their conditions may differ.

B1: C2 cys-diabody: human anti-c-Met cys-diabody comprising SEQ ID NO:18 (protein)
chain: QVQLQESGGGLVQPGGSLRLSCAASGFTFSSYAMSWVRQAPGKGLEWVSAISGSGGSTYYADSVKGRFTISRDNSKNTLYLQMNSLRAEDTAVYYCASQHVGEQSRYFDYWGQGTLVTVSSGGGGGSDIVMTQSPSSLSASIGDRVTITCRASHSISSYVNWYQKKPGKAPNLLIYAASYLPRGVPSRFSGSGLGTDFTLTISNLQPEDFATYYCQESYSTPYSFGQGTKVDIKRAAAEQKLISEEDLNGAAHHHHHHC
modifications: C2 cys-diabody sequence
B2: F1 ScFv antibody (phage-displayed) (scFv)
scFv: QVQLVQSGAEVKKPGASVKVSCKASGYTFTDYYMHWVRQAPGEGLEWMGWMNPNSGGTNYAQKFQGRVTMTRDTSISTAYMELSRLRSDDTAVYYCARSHYWDSWSPGTLVTVSSGGGGGSGGGGSGGGGSSALTQPASVSGSPGQSITISCTGTSGDVGGYNYVSWYQQHPGKAPKLMIYDVSNRPSGVSNRFSGSKSGNTASLTISGLQAEDEADYYCTSYAGSRNLVFGGGTKLTVLG
notes: The fusion to the phage coat protein is not described
B3: H5 cys-diabody: human anti-c-Met cys-diabody comprising SEQ ID NO:24 (protein)
chain: QVQLQESGGGLVQPGGSLRLSCAASGFTFSNYAMSWVRQAPGKGLEWVSAISGSGGSTYYADSVKGRFTISRDNSKNTLYLQMNSLRAEDTAVYYCAKDRFRAAAYWGQGTLVTVSSGGGGGSQSVLTQPPSVSAAPGQKVTISCTGSSSNIGAGYDVHWYQQLPGTAPKLLIYGNSNRPSGVPDRFSGSKSGTSASLAISGLQSEDEADYYCAAWDDILNGEIFGGGTKVTVLGAAAEQKLISEEDLNGAAHHHHHHC
modifications: H5 cys-diabody sequence

Assays:
human MET protein = molecular target: T1, human MET protein (Homo sapiens, UniProt P08581); assay: Anti-MET ELISA, human MET-hIgG Fc captured by coated cys-diabodies; type: binding; conditions: coated cys-diabody captures human MET-hFc
T1 construct: purchased Sino Biological Inc
Protocol: (§1) Three rounds of selections on human MET protein were performed which were successfully reformatted and purified 3 cys-diabodies. C2, H2 and H5 cys-diabodies were tested for cross-reactivity to mouse MET protein. Different cys-diabodies were coated to 96-well plate (milk or anti-EpCAM cys-diabody was used as negative control). Either mouse or human MET protein was applied to the coated cys-diabodies. Then the MET-hFc proteins were detected by anti-human Fc antibody.
(§2) 1 μg of purified anti-MET cys-diabodies in […], PBS were used to coat each well at 4 degree overnight. Anti-EpCAM cys-diabody or 2% milk-PBS were used for negative controls. The overnight coated plate was then washed with PBS and blocked with 2% milk-PBS at 37 degree for 2 hours. […] The captured human or mouse MET-hIgG Fc were detected with alkaline phosphatase conjugated goat anti-human IgG.
(§3) C2, H2 and H5 cys-diabodies were used to coat 96-well ELISA plate to capture human or mouse MET-hIgG Fc fusion protein. The human IgG Fc on the fusion protein was detected with alkaline phosphatase conjugated goat anti-human IgG. […]
(§4) Three rounds of selections on human MET protein were performed, and three cys-diabodies were reformatted and purified (the C2, H2 and H5 cys-diabodies). […] Then the MET-hFc proteins were detected by anti-human Fc antibody.

mouse MET protein = molecular target: T2, mouse MET protein (Mus musculus, UniProt P16056); assay: Anti-MET ELISA, mouse MET-hIgG Fc captured by coated cys-diabodies (cross reactivity); type: binding; conditions: coated cys-diabody captures mouse MET-hFc
T2 construct: purchased Sino Biological Inc
Protocol: as §1, §2, §3, §4

Hcc827 cells = assay: MTS cell growth assay, parental Hcc827 cells; type: cell-based; conditions: 3 days, with 1 micromolar gefitinib
Protocol: (§5) These diabodies also show therapeutic effects on resistant cells with MET amplification. […] The diabodies were also applied to the resistant cell line GR6 with or without 1 μM gefitinib.
(§6) Cell growth and inhibition were evaluated by MTS assay. The MTS assay was based on the ability of live cells to convert 3-(4,5-dimethylthiazol-2-yl)-5-(3-carboxymethoxyphenyl)-2-(4-sulfophenyl)-2H-tetrazolium (MTS) to formazan. The quantity of formazan product was measured by 500 nm absorbance, which is proportional to the number of living cells in culture. The assay was performed with the CellTiter96 AQueous Assay Kit from Promega (Cat# G5421), according to the recommended protocol. 2×10^4 cells were seeded in each well of the 96-well plates and treated with different combination of antibodies and drugs for 3 days before the MTS assay. Each combination of cell line and drug and antibody treatment was set up in at least 4 replicate wells. And the results were normalized to the cells treated with media only.
(§7) Different cell lines were treated with C2, H2 or H5 cys-diabodies at different concentrations with or without 1 micromolar of gefitinib for 3 days, and then the cell growth was evaluated with MTS assay. […] All three cys-diabodies show no effects on the parental Hcc827 cells without gefitinib.
These diabodies also show therapeutic effects on resistant cells with MET amplification. […]

Hcc827-GR6 cells = assay: MTS cell growth assay, gefitinib resistant Hcc827-GR6 cells; type: cell-based; conditions: 3 days, with or without 1 μM gefitinib, MET amplified
Protocol: as §5, §6, §7
These diabodies also show therapeutic effects on resistant cells with MET amplification. The parental cell line, Hcc827, was treated with the diabodies for 3 days, and the diabodies show no effects on the growth of the parental line at all.

[1] = molecular target: T3, c-MET on the surface of Hcc827 or Hcc827-GR6 cells (human, UniProt P08581 25-1390); assay: phage flow cytometry on Hcc827 cells, bound phage detected with FITC anti-M13 antibody
T3 construct: whole, on cells; The cells express the receptor endogenously, and MET is amplified in Hcc827-GR6; also called cell surface MET
Protocol: For phage antibodies, flow cytometry was used to confirm their binding to c-MET expressing cells. Bacteria culture containing phage was concentrated 30 times into PBS according to published method (Antibody Engineering Methods and Protocols, Benny K. C. Lo). $2 \sim 5 \times 10^5$ c-MET positive Hcc827 or Hcc827-GR6 cells (Engelman et. al, Science, 2007) were incubated with 100 ul concentrated phage and 30 ul 4% milk-PBS on ice for 1 hour. Cells were then washed using flow buffer (PBS, 1% FBS, 2 mM EDTA), and the binding phage antibodies were detected by FITC conjugated anti-M13 monoclonal antibody (Santa Cruz Biotechnology, Cat# sc-53005 Fitc).

T2 sequence (P16056 with tags, fused parts or gaps limits assumed): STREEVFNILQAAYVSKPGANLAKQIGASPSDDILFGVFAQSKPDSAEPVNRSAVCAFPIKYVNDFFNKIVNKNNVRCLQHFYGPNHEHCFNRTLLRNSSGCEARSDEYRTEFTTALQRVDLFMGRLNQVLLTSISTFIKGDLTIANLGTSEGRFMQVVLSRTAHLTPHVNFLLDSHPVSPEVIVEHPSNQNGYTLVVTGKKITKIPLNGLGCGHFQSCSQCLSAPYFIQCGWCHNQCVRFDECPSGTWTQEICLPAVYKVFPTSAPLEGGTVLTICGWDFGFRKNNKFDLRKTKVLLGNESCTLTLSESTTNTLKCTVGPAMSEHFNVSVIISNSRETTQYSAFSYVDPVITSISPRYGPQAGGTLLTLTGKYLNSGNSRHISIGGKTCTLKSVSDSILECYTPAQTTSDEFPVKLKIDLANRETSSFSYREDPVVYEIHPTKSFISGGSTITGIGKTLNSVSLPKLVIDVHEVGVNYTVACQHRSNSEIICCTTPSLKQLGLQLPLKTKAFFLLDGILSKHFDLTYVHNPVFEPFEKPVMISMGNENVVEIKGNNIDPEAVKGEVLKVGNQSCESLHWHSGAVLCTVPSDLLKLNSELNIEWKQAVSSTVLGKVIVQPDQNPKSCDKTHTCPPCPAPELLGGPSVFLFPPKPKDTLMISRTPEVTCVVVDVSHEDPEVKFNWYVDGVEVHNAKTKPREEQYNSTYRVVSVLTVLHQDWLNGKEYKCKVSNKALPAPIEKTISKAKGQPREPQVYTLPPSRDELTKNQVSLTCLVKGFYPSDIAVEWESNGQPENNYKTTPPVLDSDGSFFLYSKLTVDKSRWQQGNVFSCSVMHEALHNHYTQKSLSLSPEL
T2 sequence (P16056 25-306 limits assumed): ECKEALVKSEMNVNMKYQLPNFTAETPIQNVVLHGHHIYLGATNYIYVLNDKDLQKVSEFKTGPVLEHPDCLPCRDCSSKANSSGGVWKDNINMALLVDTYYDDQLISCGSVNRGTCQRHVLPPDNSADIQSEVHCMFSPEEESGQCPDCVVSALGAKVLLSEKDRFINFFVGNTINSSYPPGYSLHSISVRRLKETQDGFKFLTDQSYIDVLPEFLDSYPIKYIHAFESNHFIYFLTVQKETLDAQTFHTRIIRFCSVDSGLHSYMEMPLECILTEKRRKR
T1 sequence (P08581 with tags, fused parts or gaps limits assumed): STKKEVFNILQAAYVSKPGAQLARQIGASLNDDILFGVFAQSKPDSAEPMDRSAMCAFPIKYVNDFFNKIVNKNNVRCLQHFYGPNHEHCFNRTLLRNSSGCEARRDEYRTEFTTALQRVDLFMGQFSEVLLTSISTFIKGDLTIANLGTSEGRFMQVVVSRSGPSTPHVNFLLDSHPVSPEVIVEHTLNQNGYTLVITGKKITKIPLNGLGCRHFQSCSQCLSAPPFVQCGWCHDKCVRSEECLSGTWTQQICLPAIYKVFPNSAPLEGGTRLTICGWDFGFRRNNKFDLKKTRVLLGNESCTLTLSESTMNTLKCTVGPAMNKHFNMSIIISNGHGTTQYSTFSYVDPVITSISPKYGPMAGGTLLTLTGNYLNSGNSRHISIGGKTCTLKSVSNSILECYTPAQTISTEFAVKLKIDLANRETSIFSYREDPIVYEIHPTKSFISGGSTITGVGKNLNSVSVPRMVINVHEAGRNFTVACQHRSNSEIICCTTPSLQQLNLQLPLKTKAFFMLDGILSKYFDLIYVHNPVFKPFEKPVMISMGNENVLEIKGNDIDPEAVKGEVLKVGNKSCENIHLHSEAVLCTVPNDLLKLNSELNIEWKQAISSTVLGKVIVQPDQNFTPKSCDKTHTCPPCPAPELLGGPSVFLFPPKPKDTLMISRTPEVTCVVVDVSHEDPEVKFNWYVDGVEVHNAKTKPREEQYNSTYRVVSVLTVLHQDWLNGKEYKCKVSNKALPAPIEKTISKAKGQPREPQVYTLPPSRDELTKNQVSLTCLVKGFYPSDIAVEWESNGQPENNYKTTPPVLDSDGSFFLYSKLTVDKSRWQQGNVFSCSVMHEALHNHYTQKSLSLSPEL
T1 sequence (P08581 25-307 limits assumed): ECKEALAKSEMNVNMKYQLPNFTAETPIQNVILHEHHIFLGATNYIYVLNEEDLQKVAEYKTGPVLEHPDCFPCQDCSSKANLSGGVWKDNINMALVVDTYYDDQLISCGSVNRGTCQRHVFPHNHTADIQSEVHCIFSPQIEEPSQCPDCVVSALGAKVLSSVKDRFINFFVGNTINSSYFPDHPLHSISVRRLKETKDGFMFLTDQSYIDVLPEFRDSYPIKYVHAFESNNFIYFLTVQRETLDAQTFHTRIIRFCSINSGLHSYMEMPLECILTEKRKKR
T3 sequence (P08581 25-1390): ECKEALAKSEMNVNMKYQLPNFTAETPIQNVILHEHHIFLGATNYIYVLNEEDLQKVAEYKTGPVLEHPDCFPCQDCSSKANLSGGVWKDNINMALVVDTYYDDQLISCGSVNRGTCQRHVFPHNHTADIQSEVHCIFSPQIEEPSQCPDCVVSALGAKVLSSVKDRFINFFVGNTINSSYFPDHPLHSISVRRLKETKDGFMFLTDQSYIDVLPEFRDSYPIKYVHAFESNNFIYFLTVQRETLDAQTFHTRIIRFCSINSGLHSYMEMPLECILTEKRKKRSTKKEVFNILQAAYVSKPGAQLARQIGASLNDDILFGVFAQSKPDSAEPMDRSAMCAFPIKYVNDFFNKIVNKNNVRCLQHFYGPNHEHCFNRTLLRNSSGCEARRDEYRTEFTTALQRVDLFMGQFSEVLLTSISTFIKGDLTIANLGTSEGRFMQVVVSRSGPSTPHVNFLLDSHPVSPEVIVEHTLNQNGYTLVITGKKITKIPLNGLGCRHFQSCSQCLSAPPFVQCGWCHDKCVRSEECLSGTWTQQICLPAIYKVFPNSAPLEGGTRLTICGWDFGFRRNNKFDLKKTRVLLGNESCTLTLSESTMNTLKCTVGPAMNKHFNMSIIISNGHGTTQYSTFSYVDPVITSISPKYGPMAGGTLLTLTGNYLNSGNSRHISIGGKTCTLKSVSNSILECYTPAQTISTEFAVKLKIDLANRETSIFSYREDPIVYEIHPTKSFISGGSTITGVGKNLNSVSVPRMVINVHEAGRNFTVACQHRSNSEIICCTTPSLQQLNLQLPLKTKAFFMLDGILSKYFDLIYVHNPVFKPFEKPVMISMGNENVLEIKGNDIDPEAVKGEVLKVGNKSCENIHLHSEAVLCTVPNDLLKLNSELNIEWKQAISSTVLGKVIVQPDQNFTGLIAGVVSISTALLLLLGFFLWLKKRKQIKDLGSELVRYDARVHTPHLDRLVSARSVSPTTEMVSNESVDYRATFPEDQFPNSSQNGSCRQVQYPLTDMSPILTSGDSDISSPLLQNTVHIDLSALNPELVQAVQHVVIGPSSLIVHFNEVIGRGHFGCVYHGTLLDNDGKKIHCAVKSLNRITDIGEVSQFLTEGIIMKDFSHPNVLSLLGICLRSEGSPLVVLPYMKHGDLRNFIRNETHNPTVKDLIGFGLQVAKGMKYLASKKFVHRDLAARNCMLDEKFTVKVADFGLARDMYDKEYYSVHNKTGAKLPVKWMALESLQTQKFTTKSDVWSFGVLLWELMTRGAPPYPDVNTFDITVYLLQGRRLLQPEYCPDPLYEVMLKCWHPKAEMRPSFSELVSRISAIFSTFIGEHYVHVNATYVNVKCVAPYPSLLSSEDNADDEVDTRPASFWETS

Molecule | binding to human MET protein (human MET protein) | cross reactivity to mouse MET protein (mouse MET protein) | effect on growth of sensitive Hcc827 cells with gefitinib (Hcc827 cells) | inhibition of growth of resistant Hcc827-GR6 cells (Hcc827-GR6 cells; listed as C2 diabody) | binding result [1] | inhibition of growth of resistant Hcc827-GR6 cells (Hcc827-GR6 cells) | inhibition of growth of resistant Hcc827-GR6 cells (Hcc827-GR6 cells; listed as H5 diabody)
B1 | bind to only human MET | bind to only human MET; also recorded: minimal cross reactivity to the mouse MET | protects the sensitive Hcc827 cells from gefitinib inhibition | some inhibition at high concentrations; also recorded: inhibition only at high concentrations |  |  | 
B2 |  |  |  |  | binds |  | 
B3 | bind to only human MET | bind to only human MET; also recorded: minimal cross reactivity to the mouse MET |  |  |  | inhibition of the resistant cells at higher concentration | some inhibition at high concentrations; also recorded: inhibition only at high concentrations
